T1: human CD3εγ-Fc heterodimer (human)
T1 construct: also called human CD3 εγ protein; recombinant CD3 εγ protein
T1 chain 1: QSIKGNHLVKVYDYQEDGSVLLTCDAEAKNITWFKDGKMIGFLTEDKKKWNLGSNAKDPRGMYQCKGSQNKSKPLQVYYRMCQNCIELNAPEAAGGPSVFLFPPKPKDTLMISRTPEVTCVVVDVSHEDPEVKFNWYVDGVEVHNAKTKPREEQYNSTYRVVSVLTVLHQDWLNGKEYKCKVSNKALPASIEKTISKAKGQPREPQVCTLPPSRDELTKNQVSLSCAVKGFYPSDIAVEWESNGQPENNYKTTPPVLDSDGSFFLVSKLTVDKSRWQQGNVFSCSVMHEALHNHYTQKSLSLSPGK
T1 chain 2: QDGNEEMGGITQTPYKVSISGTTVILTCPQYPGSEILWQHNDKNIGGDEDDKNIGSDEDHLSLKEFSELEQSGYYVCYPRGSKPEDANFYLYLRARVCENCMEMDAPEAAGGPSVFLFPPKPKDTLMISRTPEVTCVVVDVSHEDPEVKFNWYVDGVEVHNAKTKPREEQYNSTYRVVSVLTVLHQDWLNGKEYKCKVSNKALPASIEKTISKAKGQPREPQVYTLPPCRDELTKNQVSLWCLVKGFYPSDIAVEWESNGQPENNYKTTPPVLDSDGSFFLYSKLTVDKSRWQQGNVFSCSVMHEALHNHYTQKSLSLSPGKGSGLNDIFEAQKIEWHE


What was measured:
[1] = target: T1, human CD3εγ-Fc heterodimer; test: ELISA, coated human CD3εγ protein
Protocol: Human CD3 εγ protein was coated overnight at 4° C. After blocking with 2% skim milk, different dilutions of CD3 antibodies was added to each well and incubated for 1 hour. The secondary antibody HPR-labeled goat anti-human IgG Fc was added. After being developed by the TMB solution, the reaction was stopped with the concentrated sulfuric acid, and the absorbance was read at 450 nm (the results are shown in FIG. 12 and Table 8).

human GPC3 on cells = target: T2, human GPC3 on cells (human, UniProt P51654 25-563); test: flow cytometry, CHO-human GPC3 cells
T2 construct: whole, on cells; One molecule is used for both CHO-hGPC3 transfectants and GPC3+ HepG2 cells; The assay field names the cell; also called CHO-hGPC3 (clone 2B10); CHO-human GPC3
Protocol: The binding of the antibodies to human GPC3 stably-transfected cells was detected by FACS. CHO-human GPC3 stably-transfected cells prepared in Example 1 in the logarithmic growth phase were adjusted to 5×10⁵ cells/ml with 4% calf serum (Hyclone, SH30626.06). 100 μl/well of cell suspension was added to a 96-well U-plate, and centrifuged at 300 g for 5 min. The supernatant was discarded. 100 μL of gradient diluted antibodies (initial concentration 200 nM, 3-fold dilution, 12 gradients) was added to each well and incubated at 4° C. for 45 min. The secondary antibody Alexa Fluro647 labeled goat anti-human IgG Fc (1:300 dilution) was added at 50 μL/well, incubated on ice for 45 minutes, and detected by flow cytometry.

[2] = target: T3, recombinant human GPC3 protein (human, UniProt P51654 25-563); test: BLI (Octet), antibody on Protein A probe
T3 construct: also called human GPC3 full-length protein; recombinant GPC3 protein
Protocol: Using BLI technology (Octet), the antibody to be tested was captured on the Protein A probe. The binding capacity with human GPC3 protein (10 μg/ml as the initial concentration, 2-fold gradient, a total of 5 concentration points) was detected. The affinity constant KD was obtained according to the association and dissociation rates.

Row | Binder | EC50 [1] [nM] | EC50 (human GPC3 on cells) [nM] | Kd [2] [nM] | koff [2] [s⁻¹] | kon [2] [M⁻¹ s⁻¹]
1 | aCD3-hVH8/VL5 (antibody, V domains shown, Human IgG4, lambda) VH: EVQLVESGGGLVQPGGSLRLSCAASGFTFNTYAMNWVRKAPGKGLEWVGRIRSKYNNYATYYADSVKDRFTISRDDSKNSLYLQMNSLKTEDTAVYYCARHGNFGNSYVSWFAYWGQGTLVTVSS VL: QAVVTQEPSLTVSPGGTVTLTCRSSTGAVTTSNYANWVQEKPGQAPRGLIGGTNKRAPWTPARFSGSLLGGKAALTITGAQAEDEAEYYCVLWYSNLWVFGGGTKLTVL | 0.74 | – | – | – | –
2 | 5D6 (antibody, V domains shown, Chimeric IgG: murine variable regions on human IgG1 CH1-CH3 and an antibody light chain constant region) VH: QVQLQQSGAELVRPGASVKLSCKALGYTFADYEIHWVKQTPVHGLEWIGAIHPGSGGTAYNQTFEGKATLTADKSSTTAYMELSSLTSEDSAVYYCTRYYSFAYWGQGTLVTVSA VL: DVLMTQTPLSLPVSLGDQASISCRSSQSLVHSNGNTYLHWYLQKPGQSPKLLIYKVSNRFSGVPDRFSGSGSGTDFTLKISRVEAEDLGVYFCSQSTHVPLTFGAGTKLELK | – | 3.73 | 27.7 | 0.00292 | 105000
3 | 47B6 (antibody, V domains shown, Chimeric human IgG1) VH: QVQLQQSGAELMKPGASVKISCKATGYTFSSYWIEWVKQRPGHGLEWIGEILPGSGSTNYNEKFKGKATFTADTSSNTAYMQLSSLTSEDSAVYYCARGYWGQGTLVTVSA VL: DIVMTQAPLSLPVSLGDQASISCRSSQSLVHSNGNTYLHWYLQKPGQSPKLLIYKVSNRFSGVPDRFSGSGSGTDFTLKISRVEAEDLGVYFCSQSTHVPRTFGGGTKLEIK | – | 0.38 | 48.2 | 0.00149 | 30800
4 | 19F1 (antibody, V domains shown, Chimeric human IgG1) VH: QVQLQQSGAELVRPGASVKLSCKALGYTFADYEIHWVKQTPVHGLEWIGAIHPGSGGTAYNQTFEGKATLTADKSSTTAYMELSSLTSEDSAVYYCTRYYSFAYWGQGTLVTVSA VL: DVLMTQTPLSLPVSLGDQASISCRSSQSLVHSNGNTYLHWYLQKPGQSPKLLIYKVSNRFSGVPDRFSGSGSGTDFTLKISRVEAEDLGVYFCSQSTHIPTFGGGTKLELK | – | 3.59 | 18.3 | 0.00213 | 116000
5 | 46C3 (antibody, V domains shown, Chimeric human IgG1) VH: QVQLQQSGPELVKPGASVKISCKASGYTFTDYYINWVKQKPGQGLEWIGWIYPGSGNTKYNEKFKGKATLTVDTSSSTAYMQLSSLTSEDTAVYFCARGRWGQGTLVTVSA VL: DVVMTQTPLSLPVSLRDQASISCRSSQSLVHSNGNTYLHWYLQKPGQSPKLLIYKVSNRFSGVPDRFSGSGSGTDFTLKISRVEAEDLGVYFCSQSTHVPRTFGGGTKLELK | – | 0.46 | 24.3 | 0.00154 | 63600
6 | 39G4 (antibody, V domains shown, Chimeric human IgG1) VH: QVQLQQSGAELVRPGASVKLSCKALGYTFADYEIHWVKQTPVHGLEWIGAIHPGSGGTAYNQTFEGKATLTADKSSTTAYMELSSLTSEDSAVYYCTRYYSFAYWGQGTLVTVSA VL: DVVVTQTPLSLPVSLGDQASISCRSSQSLVHSNGNTYLHWYLQKPGQSPKLLIYKVSNRFSGVPDRFSGSGSGTDFTLKISRVEAEDLGVYFCSQSTHVPTFGGGTKLEIK | – | 2.79 | 26.2 | 0.00208 | 79500
7 | 41F1 (antibody, V domains shown, Chimeric human IgG1) VH: QVQLQQSGAELVRPGASVKLSCKALGYTFADYEIHWVKQTPVHGLEWIGAIHPGSGGTAYNQTFEGKATLTADKSSTTAYMELSSLTSEDSAVYYCTRYYSFAYWGQGTLVTVSA VL: DVLMTQTPLSLPVSLGDQASISCRSSQSLVHSNGNTYLHWYLQKPGQSPKLLIYKVSNRFSGVPDRFSGSGSGTDFTLKISRVEAEDLGVYFCSQNTHVPLTFGAGTKLELK | – | 0.91 | 18.5 | 0.00181 | 97900
8 | 30B7 (antibody, V domains shown, Chimeric human IgG1) VH: QVQLQQSGAELVRPGASVRLSCKALGYTFTDYEMHWVKQTPVHGLEWIGAIHPGSGGTAYNQKFKGKATLTADKSSSTAYMELSSLTSEDSAVYYCTRYYSFAYWGQGTLVTVSA VL: DVLMTQTPLSLPVSLGDQASISCRSSQSLVHSNGNTYLHWYLQKPGQSPKLLIYKVSNRFSGVPDRFSGSGSGTDFTLKISRVEAEDLGVYFCSQSTHVPLTFGAGTKLEIK | – | 2.78 | 10.9 | 0.000783 | 71700
9 | 34H1 (antibody, V domains shown, Chimeric human IgG1) VH: QVQLQQSGAELVRPGASVKLSCKALGYTFADYEIHWVKQTPVHGLEWIGAIHPGSGGTAYNQTFEGKATLTADKSSTTAYMELSSLTSEDSAVYYCTRYYSFAYWGQGTLVTVSA VL: DVVMTQTPLSLPVSLGDQASISCRSSQSLVHSNGNTYLHWYLQKPGQSPKLLIYKVSNRFSGVPDRFSGSGSGTDFTLKISRVEAEDLGVYFCSQSIHVPLTFGAGTKLELK | – | 2.1 | 12.9 | 0.00221 | 171000
10 | 42A1 (antibody, V domains shown, Chimeric human IgG1) VH: QVQLQQSGAELVRPGASVKLSCKALGYTFADYEIHWVKQTPVHGLEWIGAIHPGSGGTAYSQTFKGKATLTADKSSTTAYMELSSLTSEDSAVYYCTRYFSFAYWGQGTLVTVSA VL: DVVVTQTPLSLPVSLGDQASISCRSSQSLVHSNGNTYLHWYLQKPGQSPKLLIYKVSNRFSGVPDRFSGSGSGTDFTLKISRVEAEDLGVYFCSQSTHAPYTFGGGTRLEIK | – | 6.69 | 40.5 | 0.00243 | 60000
11 | 41H1 (antibody, V domains shown, Chimeric human IgG1) VH: QVQLQQSGAELVRPGASVKLSCKALGYTFADYEIHWVKQTPVHGLEWIGAIHPGSGGTAYNQTFEGKATLTADKSSTTAYMELSSLTSEDSAVYYCTRYYSFAYWGQGTLVTVSA VL: DVVMTQTPLSLPVSLGDQASISCRSSQSLVHSNGNTYLHWYLQKPGQSPKLLIYKVSNRFSGVPDRFSGSGSGTDFTLRISRVEAEDLGVYFCSQSTRVPLTFGAGTKLELK | – | 1.07 | 25 | 0.00264 | 106000
12 | 28G4 (antibody, V domains shown, Chimeric human IgG1) VH: EVQLQQSGAELVRPGASVKLSCKALGYTFADYEIHWVKQTPVHGLEWIGAIHPGSGGTAYNQTFKGKATLTADKSSTTAYMELSSLTSEDSAVYYCTRYYSFAYWGQGTLVTVSA VL: DVLMTQTPLSLPVSLGDQASISCRSSQSIVHSNGNTYLQWYLQKPGQSPKLLIYKVSNRFSGVPDRFSGSGSGTDFTLKISRVEAEDLGVYYCFQGSHVPYTFGGGTKLEIK | – | 2.87 | 11.3 | 0.00112 | 98900
13 | 30A4 (antibody, V domains shown, Chimeric human IgG1) VH: QVQLQQSGAELVRPGASVKLSCKALGYAFADYEIHWVKQTPVHGLEWIGAIHPGSGGTAYNQTFKGKATLTADKSSTTAYMELSSLTSEDSAVYYCTRYYSFAYWGQGTLVTVSA VL: DVVMTQTPLSLPVSLGDQASISCRSSQSLVHSNGNTYLHWYLQKPGQSPKLLIYKVSNRFSGVPDRFSGSGSGTDFTLKISRVEAEDLGVYFCSQSTHVPLTFGAGTKLELK | – | 3.68 | 19.9 | 0.00258 | 130000
14 | 29A10 (antibody, V domains shown, Chimeric human IgG1) VH: EVQLQQSGAELVRPGASVKLSCKALGYTFADYEIHWVKQTPVHGLEWIGAIHPGSGGTAYNQTFKGKATLTADKSSTTAYMELSSLTSEDSAVYYCTRYYSFAYWGQGTLVTVSA VL: DVVMTQTPLSLPVSLGDQASISCRSSQSLVHSNGNTYLHWYLQKPGQSPKLLIYKVSNRFSGVPDRFSGSGSGTDFTLKISRVEAEDLGVYFCSQSTHVPLTFGAGTKLEIK | – | 3.39 | 19.8 | 0.00281 | 142000
15 | 38D2 (antibody, V domains shown, Chimeric human IgG1) VH: QVQLQQSGAELVRPGASVKLSCKALGYTFADYEIHWVKQTPVHGLEWIGAIHPGSGGTAYNQTFEGKATLTADKSSTTAYMELSSLTSEDSAVYYCTRYYSFAYWGQGTLVTVSA VL: DVVMTQTPLSLPVSLGDQASISCRSSQSLENSNGNTYLNWYLQKPGQSPQLLIYRVSNRFSGVLDRFSGSGSGTDFTLKISRVEAEDLGVYFCLQVTHVPYTFGGGTKLEIK | – | 3.35 | 11.3 | 0.000832 | 73400

From patent publication US20240043568A1 (KEYMED BIOSCIENCES, published 2024)
